# According to article PMC12339391, “PEX39 facilitates the peroxisomal import of PTS2-containing proteins” (Nature Cell Biology, 2025):
# Where no end group is shown, it is not given here.
# T1: FLAG-PEX7 (recombinant N-terminally FLAG-tagged human PEX7) (human, UniProt O00628 1-323)
# T1 construct: PEX7, human; also called recombinant human FLAG-tagged PEX7; source: Hi5 insect cells (baculovirus, pACEBac1), purified (anti-FLAG M2 beads, FLAG peptide elution); not shown: FLAG, N-terminal, kept
# T1 sequence (looked up): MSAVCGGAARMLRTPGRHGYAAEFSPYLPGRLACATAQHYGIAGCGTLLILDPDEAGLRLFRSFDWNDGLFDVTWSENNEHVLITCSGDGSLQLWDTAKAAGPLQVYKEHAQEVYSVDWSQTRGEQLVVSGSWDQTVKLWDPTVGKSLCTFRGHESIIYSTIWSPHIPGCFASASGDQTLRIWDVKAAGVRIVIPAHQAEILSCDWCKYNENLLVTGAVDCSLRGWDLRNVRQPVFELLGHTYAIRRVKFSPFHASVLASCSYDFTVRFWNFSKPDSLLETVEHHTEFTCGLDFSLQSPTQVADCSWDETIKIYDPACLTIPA
# Key:
# [1] = target: T1, FLAG-PEX7 (recombinant N-terminally …); experiment: SEC; Superdex 200 Increase 3.2/300, 50 mM Tris-HCl pH 7.5, 150 mM NaCl, 1 mM EDTA; proteins (10–15 µg) alone or mixed, 15 min at 23 °C before injection; fractions on SDS-PAGE; details: both partners purified
# [2] = target: T1, FLAG-PEX7 (recombinant N-terminally …); experiment: native gel or EMSA; only recombinant proteins, two at a time (approximately 5 µg each of FLAG-PEX7, GST-HsPEX39, His-PEX5(1–324), His-PHYH); Coomassie staining; excised bands immunoblotted; details: both partners purified
binding result [1],binding result [2],Binder
binds,,"MASQPPPPPKPWETRRIPGAGPGPGPGPTFQSADLG (domain or fragment, human, UniProt Q92968 1-36, looked up, also: fused to Sumo1 with a hexa-histidine tag, PEX13, human, residues 1–36; also called NtPEX13.Sumo.His; PEX13 N terminus; source: recombinant (plasmid pET23a-NtPEX13.Sumo.His); not shown: His6, C-terminal, kept) [NtPEX13 (HsPEX13 residues 1–36 fused to Sumo1 with a hexa-histidine tag)]"
,binds,"GST-HsPEX39 (N-terminally GST-tagged human PEX39, C6ORF226) (natural protein, UniProt Q5I0X4 1-101, looked up, HsPEX39 (C6ORF226), human; plasmid pGEX-HsPEX39 (pGEX-6-P1); 101 residues by the printed limits of the 48–101 variant; also called recombinant HsPEX39; wild-type (WT) HsPEX39; source: E. coli BL21(DE3), purified (Glutathione Sepharose 4B); not shown: GST, N-terminal, kept) MERPRSPQCSAPASASASVTLAQLLQLVQQGQELPGLEKRHIAAIHGEPTASRLPRRPKPWEAAALAESLPPPTLRIGTAPAEPGLVEAATAPSSWHTVGP"
